Test results reported in paper PMC9386465.
Where two headings read alike, the source gives them in different places.

T1: ErmS (TlrA) rRNA adenine-N6 dimethyltransferase (Streptomyces fradiae, UniProt P45439 1-319)
T1 sequence: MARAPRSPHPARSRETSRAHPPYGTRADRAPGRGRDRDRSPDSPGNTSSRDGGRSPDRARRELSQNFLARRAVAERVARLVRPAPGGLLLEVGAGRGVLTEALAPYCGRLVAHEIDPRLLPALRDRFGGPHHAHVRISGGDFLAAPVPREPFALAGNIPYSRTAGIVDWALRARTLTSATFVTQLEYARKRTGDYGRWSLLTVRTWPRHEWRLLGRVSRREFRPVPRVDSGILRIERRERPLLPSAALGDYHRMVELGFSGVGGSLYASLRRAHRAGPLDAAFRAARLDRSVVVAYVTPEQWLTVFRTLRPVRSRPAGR


Columns and labels:
[1] = molecular target: T1, ErmS (TlrA) rRNA adenine-N6 …; test: stopped-flow fluorescence
[2] = molecular target: T1, ErmS (TlrA) rRNA adenine-N6 …; test: stopped-flow fluorescence; remark: listed apart in the source

Binder | binding result [1] | binding result [2]
GGCAAGACGGAAAGACCCCUAUCUGCC (structured_RNA, 2-aminopurine replaces A2054 (nt 7)) [2Ap2054] | binds | 
GGCAAGACGGAAAGACCCCUAUCUGCC (structured_RNA, 2-aminopurine replaces A2058 (nt 11)) [2Ap2058] |  | binds
